The values that follow come from US20150064134A1.

Some targets named below: MSSK1(h) (human) (UniProt Q9UPE1); Tie2(h) (human) (UniProt Q02763); MST3(h) (human) (UniProt Q9Y6E0); TrkB (h) (human) (UniProt Q16620).
Holding throughout (assay): cell-based or functional assay
For another experiment, the target named is T1, DCAMKL2(h) (human) (UniProt Q8N568).
T1 sequence (looked up): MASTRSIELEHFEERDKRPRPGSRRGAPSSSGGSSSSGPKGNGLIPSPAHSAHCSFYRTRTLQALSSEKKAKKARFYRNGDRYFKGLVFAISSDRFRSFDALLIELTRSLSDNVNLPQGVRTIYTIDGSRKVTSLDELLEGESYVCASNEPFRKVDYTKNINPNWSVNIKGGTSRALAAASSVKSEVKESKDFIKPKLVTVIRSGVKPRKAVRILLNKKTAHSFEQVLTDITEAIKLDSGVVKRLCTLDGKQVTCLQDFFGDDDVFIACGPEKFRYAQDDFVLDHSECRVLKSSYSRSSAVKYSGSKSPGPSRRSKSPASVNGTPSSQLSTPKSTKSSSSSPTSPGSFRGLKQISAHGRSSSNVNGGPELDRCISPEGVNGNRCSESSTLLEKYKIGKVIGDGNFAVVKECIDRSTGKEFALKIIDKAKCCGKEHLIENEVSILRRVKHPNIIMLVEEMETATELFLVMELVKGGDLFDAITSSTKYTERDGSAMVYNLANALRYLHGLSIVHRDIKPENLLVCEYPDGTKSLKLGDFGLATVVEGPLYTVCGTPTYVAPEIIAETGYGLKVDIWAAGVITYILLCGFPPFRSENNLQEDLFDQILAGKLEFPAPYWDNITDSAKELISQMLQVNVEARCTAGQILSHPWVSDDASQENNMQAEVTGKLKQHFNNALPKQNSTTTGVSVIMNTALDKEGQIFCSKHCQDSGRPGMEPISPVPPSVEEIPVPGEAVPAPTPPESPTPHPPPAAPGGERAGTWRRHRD

The target in the next experiment is T2, MST1(h) (human) (UniProt Q13043).
T2 sequence (looked up): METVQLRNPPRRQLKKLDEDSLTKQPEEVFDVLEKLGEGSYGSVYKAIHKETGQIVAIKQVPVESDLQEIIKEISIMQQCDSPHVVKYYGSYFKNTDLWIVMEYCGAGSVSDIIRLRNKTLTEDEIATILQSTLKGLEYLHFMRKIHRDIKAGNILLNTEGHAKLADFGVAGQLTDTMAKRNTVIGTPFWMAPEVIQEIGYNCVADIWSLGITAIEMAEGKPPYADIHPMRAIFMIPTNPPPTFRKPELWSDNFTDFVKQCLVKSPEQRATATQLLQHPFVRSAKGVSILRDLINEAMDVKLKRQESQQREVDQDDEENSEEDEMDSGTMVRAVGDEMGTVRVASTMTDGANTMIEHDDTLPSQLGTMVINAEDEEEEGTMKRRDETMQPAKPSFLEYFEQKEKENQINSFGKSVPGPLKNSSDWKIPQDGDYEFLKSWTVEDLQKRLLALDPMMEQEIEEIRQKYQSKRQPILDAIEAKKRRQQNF

In the next experiment the target is T3, BrSK1(h) (human) (UniProt Q8TDC3).
T3 sequence (looked up): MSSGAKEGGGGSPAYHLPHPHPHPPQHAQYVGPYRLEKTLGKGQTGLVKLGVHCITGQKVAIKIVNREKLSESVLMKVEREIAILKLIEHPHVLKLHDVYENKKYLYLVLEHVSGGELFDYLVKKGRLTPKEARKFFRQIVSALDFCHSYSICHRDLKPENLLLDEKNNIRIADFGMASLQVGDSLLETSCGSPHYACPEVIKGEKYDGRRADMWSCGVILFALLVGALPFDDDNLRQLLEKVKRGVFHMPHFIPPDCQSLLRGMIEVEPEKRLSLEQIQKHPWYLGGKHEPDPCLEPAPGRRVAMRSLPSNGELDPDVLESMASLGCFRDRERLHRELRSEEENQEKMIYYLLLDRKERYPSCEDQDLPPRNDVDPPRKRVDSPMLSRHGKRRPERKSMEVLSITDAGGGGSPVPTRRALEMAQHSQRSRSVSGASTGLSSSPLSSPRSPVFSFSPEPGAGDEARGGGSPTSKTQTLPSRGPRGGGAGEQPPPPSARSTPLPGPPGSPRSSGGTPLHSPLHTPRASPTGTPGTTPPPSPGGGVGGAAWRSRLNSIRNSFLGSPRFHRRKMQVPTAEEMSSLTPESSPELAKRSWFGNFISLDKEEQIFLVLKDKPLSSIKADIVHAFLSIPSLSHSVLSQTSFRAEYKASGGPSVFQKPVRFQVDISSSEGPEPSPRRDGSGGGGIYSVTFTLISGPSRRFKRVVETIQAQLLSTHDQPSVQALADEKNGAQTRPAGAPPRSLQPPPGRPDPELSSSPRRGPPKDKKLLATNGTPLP

In another experiment the target is T4, TSSK1(h) (human) (UniProt Q9BXA7).
T4 sequence (looked up): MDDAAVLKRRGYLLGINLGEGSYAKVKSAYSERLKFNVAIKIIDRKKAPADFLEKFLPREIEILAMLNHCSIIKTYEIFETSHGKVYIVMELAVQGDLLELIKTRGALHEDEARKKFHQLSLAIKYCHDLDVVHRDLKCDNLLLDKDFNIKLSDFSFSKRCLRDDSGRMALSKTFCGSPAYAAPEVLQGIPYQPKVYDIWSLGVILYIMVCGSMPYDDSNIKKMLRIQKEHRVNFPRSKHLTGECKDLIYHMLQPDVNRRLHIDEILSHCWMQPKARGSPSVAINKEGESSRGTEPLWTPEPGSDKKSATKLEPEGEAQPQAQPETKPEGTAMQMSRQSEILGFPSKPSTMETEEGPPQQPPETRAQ

A further experiment concerns the target T5, DRAK1(h) (human) (UniProt Q9UEE5).
T5 sequence (looked up): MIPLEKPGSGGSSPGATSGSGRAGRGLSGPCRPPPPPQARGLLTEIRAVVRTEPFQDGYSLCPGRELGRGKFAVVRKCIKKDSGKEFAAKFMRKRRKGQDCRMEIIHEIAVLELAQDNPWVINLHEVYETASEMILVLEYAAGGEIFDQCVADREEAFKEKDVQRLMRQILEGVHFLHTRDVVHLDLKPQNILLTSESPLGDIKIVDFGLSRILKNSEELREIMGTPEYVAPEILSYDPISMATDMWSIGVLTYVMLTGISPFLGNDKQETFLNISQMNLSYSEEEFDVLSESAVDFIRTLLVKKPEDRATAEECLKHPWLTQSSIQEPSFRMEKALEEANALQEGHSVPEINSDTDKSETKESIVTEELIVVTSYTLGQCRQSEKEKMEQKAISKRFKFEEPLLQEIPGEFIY

Sequence of Tie2(h) (human) (Q02763 771-1124 limits assumed): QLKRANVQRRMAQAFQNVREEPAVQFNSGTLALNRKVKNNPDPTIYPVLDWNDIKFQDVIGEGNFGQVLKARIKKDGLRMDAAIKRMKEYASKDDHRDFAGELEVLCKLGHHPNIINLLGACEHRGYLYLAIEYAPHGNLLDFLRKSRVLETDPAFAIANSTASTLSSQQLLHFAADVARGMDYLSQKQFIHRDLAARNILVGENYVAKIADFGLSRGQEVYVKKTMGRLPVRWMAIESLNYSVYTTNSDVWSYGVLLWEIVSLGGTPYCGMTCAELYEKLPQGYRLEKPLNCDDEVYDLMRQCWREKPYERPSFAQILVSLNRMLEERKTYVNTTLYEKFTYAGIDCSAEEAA

As to MMI-0300 (peptide), the % activity at 100 µM with MSSK1(h) (human) is 77%; with Tie2(h) (human) it was 26%; in the experiment with MST3(h) (human) it was 45%; with DCAMKL2(h) (human), 81%; with MST1(h) (human) it was 14%; in the experiment with TrkB (h) (human), 5%. The % activity at 100 µM with BrSK1(h) (human) came out at 67%; in the experiment with TSSK1(h) (human), 79%; with DRAK1(h) (human), 14%.
As for MMI-0500 (peptide), the % activity at 100 µM was 22% with MSSK1(h) (human); 22% with Tie2(h) (human); 4% with MST3(h) (human); 56% in the experiment with DCAMKL2(h) (human); 3% with MST1(h) (human); 12% with TrkB (h) (human). For the same substance, the % activity at 100 µM in the experiment with BrSK1(h) (human) turned out to be 72%; with TSSK1(h) (human) it was 46%; with DRAK1(h) (human), 8%.
Regarding MMI-0400 (peptide), the % activity at 100 µM with MSSK1(h) (human) worked out at 75%; with Tie2(h) (human) it was 21%; with MST3(h) (human) it was 36%; with DCAMKL2(h) (human) it was 70%; in the experiment with MST1(h) (human) it was 6%; with TrkB (h) (human) it was 8%. Besides, the % activity at 100 µM with BrSK1(h) (human) is 76%; with TSSK1(h) (human) it was 79%; with DRAK1(h) (human), 14%.
